Laboratory results published in publication PMC9342783.

Experiments:
[1] = molecular target: membrane translocated mature FopA (Francisella tularensis outer membrane protein A) with C-terminal octa-histidine tag (F. tularensis subsp. tularensis strain SCHU S4); experiment: native gel or EMSA
[2] = molecular target: membrane translocated mature FopA (Francisella tularensis outer membrane protein A) with C-terminal octa-histidine tag (F. tularensis subsp. tularensis strain SCHU S4); experiment: small angle X-ray scattering (SEC-SAXS)

membrane translocated mature FopA (Francisella tularensis outer membrane protein A) with C-terminal octa-histidine tag (natural protein)
stoichiometry N [1]: 2
stoichiometry N [2]: 2
